# Assay results: patent US7629135B2, “Toll-like receptor agonists and antagonists and methods of use thereof” (The Board of Trustees of the University of Illinois, priority 2006, dated 2009)
# Legend:
# [1] = tested on: G-CSF transcript in BMDM; experiment: Cytokine transcript induction in BMDM (RT-PCR, real-time PCR); type: cell-based, mouse; conditions: SAA 1 μM
# Experimental: (§1) To investigate the mechanism for SAA-induced G-CSF production, the level of G-CSF transcript in SAA-stimulated BMDM was determined. […] The induction of G-CSF transcript peaked at 4 h after SAA stimulation. Since transcription of the G-CSF gene involves NF-κB binding to the RelA/p65 consensus element in the CK-1 site of the G-CSF promoter (Dunn et al., 1994; Hareng and Hartung, 2002), the role of NF-κB in SAA-stimulated G-CSF expression was determined. […] Using oligonucleotide probe based on the sequence of the CK-1 site (−161 to −152 in the G-CSF promoter), a protein •DNA complex (FIG. 2C) was identified. […] Inclusion of a RelA/p65 antibody blocking peptide in the assay abrogated the immunoprecipitation (FIG. 2D).
# TLR2 mediates the effect of SAA in G-CSF expression and neutrophila: To further determine a role of TLR2 in SAA-stimulated G-CSF expression and neutrophilia, wild-type and tlr2^−/− BMDM were stimulated with SAA (1 μM) and the level of G-CSF transcript (FIG. 5A) was determined. SAA induced a 37-fold induction of the mouse G-CSF transcript within 2 h of stimulation. […] Under similar experimental conditions, SAA stimulated increases in the transcripts of M-CSF (encoded by csf1; 11-fold over basal) IL-12p40 (33-fold) and IL-1 receptor antagonist (2.7-fold). In tlr2^−/− BMDM, the SAA-stimulated induction of these transcripts was reduced by 84% (M-CSF), 86% (IL-12p40), and 80% (IL-1 receptor antagonist), respectively. […] The effects of TLR2 gene deletion on SAA-induced G-CSF production and neutrophilia were determined in vivo. Subcutaneous injection of SAA was carried out in wild-type and tlr2^−/− mice for up to 7 days.
# Measurement of G-CSF expression: To measure the secreted G-CSF from human monocytes and mouse macrophages in vitro, cells were placed in serum-free DMEM medium and stimulated with the indicated ligands. Cell-free supernatants were collected by centrifugation at 1,000×g for 30 sec and assayed for human or mouse G-CSF using ELISA. Human PBMC were used as 2×10^6 cells/ml/sample, and mouse BMDM were seeded at 10^6 cells/ml and used as 0.5 ml/sample. To measure mouse plasma G-CSF, blood samples were collected and centrifuged at 1,000-2,000×g for 10 min at 4° C. Plasma samples were appropriately diluted and then checked for G-CSF concentration using ELISA. To measure mouse G-CSF transcripts, mouse […] (10^6 cells/ml, 5 ml/sample) were stimulated with 1 μM SAA for different periods of time. Total RNA was isolated with an RNeasy isolation kit (Qiagen) and cDNA was prepared with Superscript reverse transcriptase (Invitrogen). PCR amplification of G-CSF transcripts was accomplished with specific primers (F346: 5′-[…]-3′ (SEQ ID NO:3) and R980: 5′-CAGGGCTCACTGATTT TTTGG-3′) (SEQ ID NO:4), generating a 634-bp fragment. M-actin gene (a 469 bp fragment) was used for verification of equal loading and of RT-PCR efficiency. Real-time quantitative PCR was performed on a ABI PRISM 7000 Sequence Detection System (Applied Biosystems) as described previously (He et al., 2006). All data were analyzed with the ABI PRISM 7000 SDS software (version 1.1). Relative level of mRNA for G-CSF was determined by normalizing with β-actin mRNA level. The sequences of the primers used are: F229 (5′-[…]-3′) (SEQ ID NO:5) and R502 (5′-[…]-3′) (SEQ ID NO:6) for G-CSF and F413 (5′-CCCTAAGGCCAACCGTGAA-3′) (SEQ ID NO:7) and R882 (5′-[…]-3′) (SEQ ID NO:8) for β-actin.
# [2] = tested on: NF-κB; experiment: Electrophoresis mobility shift assay (EMSA) with BMDM nuclear extracts; type: cell-based, mouse; conditions: SAA-stimulated BMDM, after 30 min
# Experimental: as §1
# EMSA: Nuclear extracts were isolated using the method of Dignam et al (Dignam et al., 1983) with minor modifications. For each sample, 5×10^6 cells were used. Radiolabeling of the NF-κB probe and CK-1 probe, binding reactions, electrophoresis, and autoradiography were conducted as described previously (He et al., 2003).
# [3] = tested on: TLR2-HeLa cells; experiment: MAP kinase phosphorylation and IκBα degradation in TLR2-HeLa cells (Western blotting); type: cell-based, human
# Experimental: FIG. 8 is a series of protein gels and corresponding Western blotting graphs showing that SAA-induced TLR2-dependent signaling in transfected cells. Serum-starved TLR2-HeLa and mock-transfected HeLa cells were stimulated with SAA (1 μM) or Pam3CSK4 (1 μg/ml) for the indicated time. The phosphorylation level of ERK1/2 (A), p38 (B) and JNK (C) was detected by Western blotting using antibodies recognizing the phosphorylated forms of the MAP kinases (blots). (D) The level of cytoplasmic IκB ? was detected by Western blotting using an anti-IκB ? antibody and the β-actin levels in the corresponding samples were shown as loading controls. […] A representative set of data, from 3 repeating experiments, is presented.
molecule,measurement,setting,value
"SAA: Recombinant human SAA purchased from PeproTech; major acute-phase protein of 104 amino acids (protein, UniProt P0DJI8 19-122, looked up) Serum amyloid A-1 protein: RSFFSFLGEAFDGARDMWRAYSDMREANYIGSDKYFHARGNYDAAKRGPGGAWAAEVITDARENIQRFFGHGAEDSLADQAANEWGRSGKDPNHFRPAGLPEKY",reduction of G-CSF transcript induction in tlr2−/− vs wild-type BMDM,[1],94%
same,reduction of IL-1 receptor antagonist transcript induction in tlr2−/− BMDM,[1],80%
same,reduction of IL-12p40 transcript induction in tlr2−/− BMDM,[1],86%
same,reduction of M-CSF transcript induction in tlr2−/− BMDM,[1],84%
same,time of peak induction of G-CSF transcript,"[1]; BMDM, RT-PCR",4 h
same,induction of G-CSF transcript over basal level,[1]; tlr2−/− BMDM,2 fold
same,increase in IL-1 receptor antagonist transcript,[1]; wild-type BMDM,2.7 fold
same,increase in IL-12p40 transcript,[1]; wild-type BMDM,33 fold
same,increase in M-CSF transcript over basal,[1]; wild-type BMDM,11 fold
same,induction of mouse G-CSF transcript,"[1]; wild-type BMDM, within 2 h, real-time PCR",37 fold
same,formation of NF-κB•DNA complex,[2],stimulated the formation of NF-κB•DNA complex
same,IκBα degradation,"[3]; TLR2-HeLa cells, SAA 1 μM",IκBα degradation
same,"phosphorylation of MAP kinases ERK1/2, p38 and JNK","[3]; TLR2-HeLa cells, SAA 1 μM",robust phosphorylation
same,ERK1/2 phosphorylation in mock-transfected cells,"[3]; mock-transfected HeLa cells, 10 min, SAA 1 μM, Pam3CSK4 1 μg/ml",induced ERK1/2 phosphorylation
same,IκBα degradation in mock-transfected cells,"[3]; mock-transfected HeLa cells, SAA stimulation",No IκBα degradation
